This is an account of results in patent publication US20240132593A1 (KINETA, published 2024).

Values joined by “and” are separate entries in the source; they are usually repeats but may differ in a detail not shown here. Equal values may be shown once.

Assay [1] has as its target T1, His-tagged recombinant human VISTA-ECD (Met 1 to Ala 194) (human, UniProt Q9H7M9 33-194).
T1 construct: also called hu.VISTA; VISTA-His; not shown: His tag
The assay can be described thus: ELISA endpoint, His-VISTA on plate, mAb at 2 µg/mL.

In assay [2] the target is T2, His-tagged recombinant cynomolgus monkey VISTA-ECD (Met 1 to Ala 194) (cynomolgus monkey, UniProt Q9H7M9 33-194 (human entry)).
T2 construct: also called cyno VISTA; Cyno VISTA
T2 chain: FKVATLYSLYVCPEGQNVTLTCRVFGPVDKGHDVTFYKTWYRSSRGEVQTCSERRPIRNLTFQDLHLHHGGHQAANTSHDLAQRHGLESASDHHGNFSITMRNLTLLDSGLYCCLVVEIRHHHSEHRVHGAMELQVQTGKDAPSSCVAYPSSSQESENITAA
Nature of the assay: ELISA endpoint, His-VISTA on plate, mAb at 2 µg/mL. For orientation: In an ELISA, binding on a coated surface is turned into a signal by an enzyme label.
Procedure: (§1) Nickel-coated 96-well ELISA plates (Thermo Scientific) or Maxisorb 96-well polystyrene ELISA plates were coated overnight at 4° C. with 50 μL of a 0.5-1 μg/mL solution of His-tagged VISTA protein (SinoBiological, Met1-Ala194 produced in HE293 cells) in 0.1M NaHCO₃ pH 9.6. All subsequent incubations were performed at room temperature. Wells were washed 3 times with PBST (0.05% Tween 20) and blocked for 2 h with 200 μL 5% BSA in PBST. […] Each antibody dilution was incubated at 50-100 μL/well in the ELISA plate for 1 h, after which plates were washed 3 times with PBST and incubated with a 1:20,000 dilution of Biotin SP AffiniPure Donkey Anti-Human IgG (H+L) polyclonal antibody (Jackson ImmunoResearch, 50-100 μL/well) for 1 h. Wells were washed 3 times with PBST, and the plates were incubated with 50-100 μL of a 1:200 dilution of Streptavidin-HRP (R&D Systems) for 30 min. Wells were washed 3 times with PBST and developed with 100 μL 1-Step Ultra Fast TMB Substrate (Thermo Scientific) for 2 minutes. The reaction was stopped with 100 μL 2N H₂SO₄, and plate well absorbance was measured at 450 nm (Biotek ELx808).

Assay [3] has as its target T1, His-tagged recombinant human VISTA-ECD …. The assay can be described thus: ELISA, His-tagged human VISTA ECD on plate, mAb titrated.
Procedure: as §1
For human VISTA binding data, EC₅₀ values were calculated from nonlinear regression of log-transformed dose-response data.
Assay [4] shares this target. The assay can be described thus: BLI Octet, mAb on AHC sensor, hu VISTA-ECD-His 50 nM. For orientation: In BLI a coated tip is dipped into the sample, and binding shifts an interference pattern.
Procedure: Octet scouting: Antibody affinities were measured using biolayer interferometry (BLI) on the Octet Red 96 (ForteBio) system. Anti-human IgG Fc Capture (AHC) dip and read sensors (ForteBio) were used to capture each anti-VISTA antibody formatted as either an IgG1 or IgG4 and diluted to 20 μg/mL in PBS pH 7.4. AHC sensors were dipped into antibody solution for 180 s to capture each IgG on the sensor. An initial baseline was established by soaking each sensor in PBS pH 7.4 for an additional 120 s. […] Human, cynomolgus monkey, and mouse VISTA-ECD were evaluated. Studies were performed by association with VISTA-ECD for 240 s and dissociation in PBS pH 7.4 for 360 s. Data analysis was performed using Octet Data Analysis software version 9.0.0.14. In general, baseline alignment without subtraction was used for raw data processing. A Savitzky-Golay digital filter was used to remove high-frequency noise, and processed data were globally fit to a 1:1 binding model. Where binding was present, the affinity constant (KD) was calculated for each antibody-antigen pair.
Assay [5] addresses T3, His-tagged recombinant mouse VISTA-ECD (Met 1 to Ala 194) (Sino Biological) (mouse, UniProt Q9D659 33-194).
T3 construct: not shown: His tag
T3 sequence: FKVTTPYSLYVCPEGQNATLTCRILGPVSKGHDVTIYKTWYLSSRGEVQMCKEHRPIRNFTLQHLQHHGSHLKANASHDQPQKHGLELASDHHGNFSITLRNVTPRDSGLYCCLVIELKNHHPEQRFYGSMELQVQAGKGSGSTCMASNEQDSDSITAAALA
Nature of the assay: BLI (Octet Red 96), antibody on AHC sensor.

Assay [6] deals with T4, hVISTA ECD-Fc R54A, F62A, Q63A (human).
T4 construct: also called human VISTA-Fc 54A62A63A; triple VISTA-Fc mutant
T4 sequence (chain, as listed by the source R54A F62A Q63A R54A F62A Q63A): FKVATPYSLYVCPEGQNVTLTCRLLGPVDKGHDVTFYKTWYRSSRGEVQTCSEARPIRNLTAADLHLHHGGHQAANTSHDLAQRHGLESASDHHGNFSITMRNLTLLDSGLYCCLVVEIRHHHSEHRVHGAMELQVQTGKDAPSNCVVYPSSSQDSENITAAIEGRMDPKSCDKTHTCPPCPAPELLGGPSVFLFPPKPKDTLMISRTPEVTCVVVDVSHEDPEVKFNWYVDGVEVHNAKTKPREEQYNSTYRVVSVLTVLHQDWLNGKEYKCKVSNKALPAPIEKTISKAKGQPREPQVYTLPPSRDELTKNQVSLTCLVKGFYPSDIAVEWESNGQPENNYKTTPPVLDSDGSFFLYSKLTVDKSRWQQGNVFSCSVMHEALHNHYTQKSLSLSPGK
Nature of the assay: ELISA on immobilized VISTA-Fc (5 µg/mL), antibody at 10 µg/mL.
Procedure: ELISA was used to measure antibody binding to wild-type and mutant VISTA essentially as described above. VISTA-Fc (5 μg/mL) was immobilized on Maxisorb 96-well ELISA plates and reacted with each antibody diluted to 10 μg/mL in a standard ELISA format. Binding data were reported as absorbance at 450 nm.

B1: Antibody No. 833.1 (antibody, human IgG1, kappa)
heavy: not shown
light: EIVLTQSPDFQSVTPKEKVTITCRASQSIGSSLHWYQQKPDQSPKLLIKYASQSISGVPSRFSGSGSGTDFTLTINSLEAEDAAAYYCHQSSSLPQTFGQGTKVEIKRTVAAPSVFIFPPSDEQLKSGTASVVCLLNNFYPREAKVQWKVDNALQSGNSQESVTEQDSKDSTYSLSSTLTLSKADYEKHKVYACEVTHQGLSSPVTKSFNRGEC
notes: Human IgG1, kappa; also called Ab No. 833.1
Take B1: the “endpoint absorbance (450 nm)” value in assay [1] was found to be 2.02; in assay [2] it was 1.89. In assay [3], the EC50 is 0.074 µg/mL and 0.5 nM. For the same molecule, the Response in assay [4] was 0.334.

B2: Antibody No. 833.1 (antibody, human IgG1, kappa)
light: B1 light
heavy: not shown
notes: also called Ab No. 833.1
With B2, the binding result in assay [5] is listed as “no binding (tested: 50 nM-300 nM)”; in assay [6], “binds”.

Broadly, the EC50 is the concentration that produces a half-maximal response.
